Assay results published in paper PMC2504300.

How the values were obtained:
Assay in all cases: filter binding
[1] = biological target: T1, Grp (glutamine receptor protein) (Sulfolobus tokodaii strain 7, UniProt F9VNT4 1-150)
T1 sequence: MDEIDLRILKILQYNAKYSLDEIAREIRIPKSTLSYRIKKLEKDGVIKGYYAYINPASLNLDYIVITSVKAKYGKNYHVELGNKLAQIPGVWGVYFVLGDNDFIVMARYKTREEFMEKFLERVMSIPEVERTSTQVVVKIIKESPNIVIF

[2] = biological target: T2, Grp S32A (Sulfolobus tokodaii strain 7, UniProt F9VNT4 1-150, S32A)
T2 sequence: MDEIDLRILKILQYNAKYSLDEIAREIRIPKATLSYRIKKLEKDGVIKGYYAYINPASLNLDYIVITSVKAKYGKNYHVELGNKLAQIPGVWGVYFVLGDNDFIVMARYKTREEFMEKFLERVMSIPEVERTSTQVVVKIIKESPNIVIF

[3] = biological target: T3, Grp Y77A (Sulfolobus tokodaii strain 7, UniProt F9VNT4 1-150, Y77A)
T3 sequence: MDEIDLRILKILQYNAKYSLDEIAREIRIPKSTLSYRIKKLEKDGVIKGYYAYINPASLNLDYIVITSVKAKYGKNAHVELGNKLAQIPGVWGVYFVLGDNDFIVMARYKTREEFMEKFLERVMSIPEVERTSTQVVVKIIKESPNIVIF

[4] = biological target: T1, Grp (glutamine receptor protein); remark: listed apart in the source

B1: 111-bp grp promoter (dsDNA)
DNA 1: CGTATCTTCCAAAGATTATAAGCGATTTTTTGTAAGTCTTTTTTTATTATAAGTGTTGATTAGATATAATTCAAAGTAAAGGCTTATATTTTTGTTTATAATATACAGTCT
DNA 2: AGACTGTATATTATAAACAAAAATATAAGCCTTTACTTTGAATTATATCTAATCAACACTTATAATAAAAAAAGACTTACAAAAAATCGCTTATAATCTTTGGAAGATACG
B1: binds [1].

B2: 18-bp grp promoter fragment (dsDNA)
DNA 1: ATATTTTTGTTTATAATA
DNA 2: TATTATAAACAAAAATAT
For B2, the binding signal [2] was ~5 fold lower binding than wild type, the binding result [3] was “no binding” and the Kd [4] was 188 ± 1 nM.
